Reference: publication PMC9219861

Molecular target: ULK1 (UniProt O75385)
Experiment: FLAG co-IP, ULK1 blot
Conditions: reference: Flag-CHK2 WT, EBSS; sites T68

In the case of “CHK2 (from UniProt O96017) Flag-CHK2 T68A, EBSS”, the “binding against the reference” value is reported as “weaker”.
